Measurements as given in article doi:10.1101/2025.03.13.642734.

Target: ExsA-His6 (Pseudomonas aeruginosa) (UniProt P26993)
Sequence of UniProt P26993 (P26993 whole entry): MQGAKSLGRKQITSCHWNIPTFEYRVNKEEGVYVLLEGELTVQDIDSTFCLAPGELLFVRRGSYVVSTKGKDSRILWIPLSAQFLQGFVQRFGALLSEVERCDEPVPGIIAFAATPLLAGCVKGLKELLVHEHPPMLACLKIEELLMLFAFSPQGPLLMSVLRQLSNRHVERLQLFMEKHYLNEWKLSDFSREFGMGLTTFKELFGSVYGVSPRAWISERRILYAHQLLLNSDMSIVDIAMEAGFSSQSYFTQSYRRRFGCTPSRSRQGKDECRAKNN

GST-Dap2 (natural protein) gave an EMSA: ExsA-exsC promoter DNA complex with increasing concentrations of GST-Dap2 of 1 µM.
